Measurements as given in patent US20140087995A1 (published 2014).
Numbered stars: 1 amine (or outer) side, 2 acyl side, 3 side chain; on linkers, the order of the positions; unused ones are H or OH. Bridge positions count the residues as written; N and C are the ends. * marks the point of attachment. C20 diacid = O=C(O)CCCCCCCCCCCCCCCCCCC(=O)*; γGlu = O=C(O)[C@H](CCC(=O)[*:2])N[*:1]

T1: human amylin receptor (amylin 3(a) receptor: human calcitonin receptor plus RAMP-3) (human, UniProt P30988 25-474; O60896 24-148, limits assumed)
T1 sequence (looked up) 1: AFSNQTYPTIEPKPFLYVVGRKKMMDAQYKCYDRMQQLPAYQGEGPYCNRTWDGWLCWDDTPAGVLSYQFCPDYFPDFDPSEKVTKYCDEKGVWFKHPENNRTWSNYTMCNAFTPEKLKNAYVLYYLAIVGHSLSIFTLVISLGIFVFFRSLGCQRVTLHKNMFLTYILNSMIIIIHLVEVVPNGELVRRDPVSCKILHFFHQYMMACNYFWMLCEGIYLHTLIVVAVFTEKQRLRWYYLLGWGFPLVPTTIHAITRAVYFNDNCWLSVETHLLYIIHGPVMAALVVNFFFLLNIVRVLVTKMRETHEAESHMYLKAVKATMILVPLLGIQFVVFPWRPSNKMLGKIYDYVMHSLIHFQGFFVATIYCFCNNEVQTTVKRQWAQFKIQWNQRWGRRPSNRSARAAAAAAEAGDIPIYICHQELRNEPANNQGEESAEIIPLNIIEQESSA
T1 sequence (looked up) 2: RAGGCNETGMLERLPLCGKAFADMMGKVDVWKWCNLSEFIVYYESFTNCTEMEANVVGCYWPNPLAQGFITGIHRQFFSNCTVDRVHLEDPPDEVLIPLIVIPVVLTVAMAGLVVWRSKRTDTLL

T2: human calcitonin receptor (human, UniProt P30988 25-474)
T2 sequence (looked up): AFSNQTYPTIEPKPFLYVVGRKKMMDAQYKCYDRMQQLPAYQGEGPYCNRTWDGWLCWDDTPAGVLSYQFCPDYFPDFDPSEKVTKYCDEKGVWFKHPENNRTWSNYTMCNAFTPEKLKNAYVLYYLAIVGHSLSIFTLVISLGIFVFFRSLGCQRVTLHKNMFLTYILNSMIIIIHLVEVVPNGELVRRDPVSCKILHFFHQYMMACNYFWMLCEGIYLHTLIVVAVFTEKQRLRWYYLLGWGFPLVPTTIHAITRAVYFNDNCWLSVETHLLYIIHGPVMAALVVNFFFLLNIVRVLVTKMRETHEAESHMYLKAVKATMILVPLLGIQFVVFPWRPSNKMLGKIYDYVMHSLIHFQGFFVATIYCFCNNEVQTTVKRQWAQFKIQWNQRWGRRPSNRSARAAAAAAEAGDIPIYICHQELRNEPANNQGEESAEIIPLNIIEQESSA

B1: N^α1-[(4S)-4-carboxy-4-(19-carboxynonadecanoylamino)butanoyl]-[Glu14,Arg17,Pro21,Pro27,Pro29]-h-amylin (peptide)
peptide: {C20 diacid-γGlu}-KCNTATCATQRLAEFLRHSSPNFGAIPSPTNVGSNTY-NH2
modifications: disulfide 2-7
SMILES: CC[C@H](C)[C@H](NC(=O)[C@H](C)NC(=O)CNC(=O)[C@H](Cc1ccccc1)NC(=O)[C@H](CC(N)=O)NC(=O)[C@@H]1CCCN1C(=O)[C@H](CO)NC(=O)[C@H](CO)NC(=O)[C@H](Cc1c[nH]cn1)NC(=O)[C@H](CCCNC(=N)N)NC(=O)[C@H](CC(C)C)NC(=O)[C@H](Cc1ccccc1)NC(=O)[C@H](CCC(=O)O)NC(=O)[C@H](C)NC(=O)[C@H](CC(C)C)NC(=O)[C@H](CCCNC(=N)N)NC(=O)[C@H](CCC(N)=O)NC(=O)[C@@H](NC(=O)[C@H](C)NC(=O)[C@@H]1CSSC[C@H](NC(=O)[C@H](CCCCN)NC(=O)CC[C@H](NC(=O)CCCCCCCCCCCCCCCCCCC(=O)O)C(=O)O)C(=O)N[C@@H](CC(N)=O)C(=O)N[C@@H]([C@@H](C)O)C(=O)N[C@@H](C)C(=O)N[C@@H]([C@@H](C)O)C(=O)N1)[C@@H](C)O)C(=O)N1CCC[C@H]1C(=O)N[C@@H](CO)C(=O)N1CCC[C@H]1C(=O)N[C@H](C(=O)N[C@@H](CC(N)=O)C(=O)N[C@H](C(=O)NCC(=O)N[C@@H](CO)C(=O)N[C@@H](CC(N)=O)C(=O)N[C@H](C(=O)N[C@@H](Cc1ccc(O)cc1)C(N)=O)[C@@H](C)O)C(C)C)[C@@H](C)O
notes: also called compound 37
B2: N^α1-[(4S)-4-carboxy-4-(19-carboxynonadecanoylamino)butanoyl]-[Glu14,Arg17,Pro21,Pro27,Pro34]-h-amylin (peptide)
peptide: {C20 diacid-γGlu}-KCNTATCATQRLAEFLRHSSPNFGAIPSSTNVGPNTY-NH2
modifications: disulfide 2-7
SMILES: CC[C@H](C)[C@H](NC(=O)[C@H](C)NC(=O)CNC(=O)[C@H](Cc1ccccc1)NC(=O)[C@H](CC(N)=O)NC(=O)[C@@H]1CCCN1C(=O)[C@H](CO)NC(=O)[C@H](CO)NC(=O)[C@H](Cc1c[nH]cn1)NC(=O)[C@H](CCCNC(=N)N)NC(=O)[C@H](CC(C)C)NC(=O)[C@H](Cc1ccccc1)NC(=O)[C@H](CCC(=O)O)NC(=O)[C@H](C)NC(=O)[C@H](CC(C)C)NC(=O)[C@H](CCCNC(=N)N)NC(=O)[C@H](CCC(N)=O)NC(=O)[C@@H](NC(=O)[C@H](C)NC(=O)[C@@H]1CSSC[C@H](NC(=O)[C@H](CCCCN)NC(=O)CC[C@H](NC(=O)CCCCCCCCCCCCCCCCCCC(=O)O)C(=O)O)C(=O)N[C@@H](CC(N)=O)C(=O)N[C@@H]([C@@H](C)O)C(=O)N[C@@H](C)C(=O)N[C@@H]([C@@H](C)O)C(=O)N1)[C@@H](C)O)C(=O)N1CCC[C@H]1C(=O)N[C@@H](CO)C(=O)N[C@@H](CO)C(=O)N[C@H](C(=O)N[C@@H](CC(N)=O)C(=O)N[C@H](C(=O)NCC(=O)N1CCC[C@H]1C(=O)N[C@@H](CC(N)=O)C(=O)N[C@H](C(=O)N[C@@H](Cc1ccc(O)cc1)C(N)=O)[C@@H](C)O)C(C)C)[C@@H](C)O
notes: also called compound 32
B3: N^α1-[(4S)-4-carboxy-4-(19-carboxynonadecanoylamino)butanoyl]-[Glu14,Arg17,Pro21,Pro27,Pro37]-h-amylin (peptide)
peptide: {C20 diacid-γGlu}-KCNTATCATQRLAEFLRHSSPNFGAIPSSTNVGSNTP-NH2
modifications: disulfide 2-7
SMILES: CC[C@H](C)[C@H](NC(=O)[C@H](C)NC(=O)CNC(=O)[C@H](Cc1ccccc1)NC(=O)[C@H](CC(N)=O)NC(=O)[C@@H]1CCCN1C(=O)[C@H](CO)NC(=O)[C@H](CO)NC(=O)[C@H](Cc1c[nH]cn1)NC(=O)[C@H](CCCNC(=N)N)NC(=O)[C@H](CC(C)C)NC(=O)[C@H](Cc1ccccc1)NC(=O)[C@H](CCC(=O)O)NC(=O)[C@H](C)NC(=O)[C@H](CC(C)C)NC(=O)[C@H](CCCNC(=N)N)NC(=O)[C@H](CCC(N)=O)NC(=O)[C@@H](NC(=O)[C@H](C)NC(=O)[C@@H]1CSSC[C@H](NC(=O)[C@H](CCCCN)NC(=O)CC[C@H](NC(=O)CCCCCCCCCCCCCCCCCCC(=O)O)C(=O)O)C(=O)N[C@@H](CC(N)=O)C(=O)N[C@@H]([C@@H](C)O)C(=O)N[C@@H](C)C(=O)N[C@@H]([C@@H](C)O)C(=O)N1)[C@@H](C)O)C(=O)N1CCC[C@H]1C(=O)N[C@@H](CO)C(=O)N[C@@H](CO)C(=O)N[C@H](C(=O)N[C@@H](CC(N)=O)C(=O)N[C@H](C(=O)NCC(=O)N[C@@H](CO)C(=O)N[C@@H](CC(N)=O)C(=O)N[C@H](C(=O)N1CCC[C@H]1C(N)=O)[C@@H](C)O)C(C)C)[C@@H](C)O
notes: also called compound 8
B4: N^α1-[(4S)-4-carboxy-4-[[(4S)-4-carboxy-4-(19-carboxynonadecanoylamino)butanoyl]amino]butanoyl]-[Glu14,Arg17,Pro21,Pro27,Pro37]-h-amylin (peptide)
peptide: {C20 diacid-γGlu-γGlu}-KCNTATCATQRLAEFLRHSSPNFGAIPSSTNVGSNTP-NH2
modifications: disulfide 2-7
SMILES: CC[C@H](C)[C@H](NC(=O)[C@H](C)NC(=O)CNC(=O)[C@H](Cc1ccccc1)NC(=O)[C@H](CC(N)=O)NC(=O)[C@@H]1CCCN1C(=O)[C@H](CO)NC(=O)[C@H](CO)NC(=O)[C@H](Cc1c[nH]cn1)NC(=O)[C@H](CCCNC(=N)N)NC(=O)[C@H](CC(C)C)NC(=O)[C@H](Cc1ccccc1)NC(=O)[C@H](CCC(=O)O)NC(=O)[C@H](C)NC(=O)[C@H](CC(C)C)NC(=O)[C@H](CCCNC(=N)N)NC(=O)[C@H](CCC(N)=O)NC(=O)[C@@H](NC(=O)[C@H](C)NC(=O)[C@@H]1CSSC[C@H](NC(=O)[C@H](CCCCN)NC(=O)CC[C@H](NC(=O)CC[C@H](NC(=O)CCCCCCCCCCCCCCCCCCC(=O)O)C(=O)O)C(=O)O)C(=O)N[C@@H](CC(N)=O)C(=O)N[C@@H]([C@@H](C)O)C(=O)N[C@@H](C)C(=O)N[C@@H]([C@@H](C)O)C(=O)N1)[C@@H](C)O)C(=O)N1CCC[C@H]1C(=O)N[C@@H](CO)C(=O)N[C@@H](CO)C(=O)N[C@H](C(=O)N[C@@H](CC(N)=O)C(=O)N[C@H](C(=O)NCC(=O)N[C@@H](CO)C(=O)N[C@@H](CC(N)=O)C(=O)N[C@H](C(=O)N1CCC[C@H]1C(N)=O)[C@@H](C)O)C(C)C)[C@@H](C)O
notes: also called compound 14
B5: N^α1N^α1-[(4S)-4-carboxy-4-(19-carboxynonadecanoylamino)butanoyl]-[Glu14,Arg17,Pro21,Pro27,Glu35]-h-amylin (peptide)
peptide: {C20 diacid-γGlu}-KCNTATCATQRLAEFLRHSSPNFGAIPSSTNVGSETY-NH2
modifications: disulfide 2-7
SMILES: CC[C@H](C)[C@H](NC(=O)[C@H](C)NC(=O)CNC(=O)[C@H](Cc1ccccc1)NC(=O)[C@H](CC(N)=O)NC(=O)[C@@H]1CCCN1C(=O)[C@H](CO)NC(=O)[C@H](CO)NC(=O)[C@H](Cc1c[nH]cn1)NC(=O)[C@H](CCCNC(=N)N)NC(=O)[C@H](CC(C)C)NC(=O)[C@H](Cc1ccccc1)NC(=O)[C@H](CCC(=O)O)NC(=O)[C@H](C)NC(=O)[C@H](CC(C)C)NC(=O)[C@H](CCCNC(=N)N)NC(=O)[C@H](CCC(N)=O)NC(=O)[C@@H](NC(=O)[C@H](C)NC(=O)[C@@H]1CSSC[C@H](NC(=O)[C@H](CCCCN)NC(=O)CC[C@H](NC(=O)CCCCCCCCCCCCCCCCCCC(=O)O)C(=O)O)C(=O)N[C@@H](CC(N)=O)C(=O)N[C@@H]([C@@H](C)O)C(=O)N[C@@H](C)C(=O)N[C@@H]([C@@H](C)O)C(=O)N1)[C@@H](C)O)C(=O)N1CCC[C@H]1C(=O)N[C@@H](CO)C(=O)N[C@@H](CO)C(=O)N[C@H](C(=O)N[C@@H](CC(N)=O)C(=O)N[C@H](C(=O)NCC(=O)N[C@@H](CO)C(=O)N[C@@H](CCC(=O)O)C(=O)N[C@H](C(=O)N[C@@H](Cc1ccc(O)cc1)C(N)=O)[C@@H](C)O)C(C)C)[C@@H](C)O
notes: also called compound 22

Key:
[1] = molecular target: T1, human amylin receptor (amylin 3(a) …); experiment: cell-based or functional assay
[2] = molecular target: T2, human calcitonin receptor; experiment: cell-based or functional assay
[3] = molecular target: T1, human amylin receptor (amylin 3(a) …); experiment: SPA competition binding, membranes of Amylin 3(a)/CRE-luc BHK cells, displacement of 125I-rat amylin (Assay V)
Experimental: The binding assay was performed using scintillation proximity assay (SPA) beads (RPNQ0001) from PerkinElmer and cell membranes from the Amylin 3(a)/CRE-luc cells (as described in Assay (II)) were used. Membranes were prepared in the following way; the cells were rinsed with PBS and incubated with Versene for approximately 5 min before harvesting. The cells were flushed with PBS and the cell-suspension was centrifuged for 5 min at 1000 rpm. Cells were homogenized (ultrathurrax) in a buffer containing 20 mM Na-HEPES and 10 mM EDTA (pH 7.4) and centrifuged at 20.000 rpm for 15 min. The resulting pellet was resuspended, homogenized and centrifuged (20.000 rpm, 15 min) in a buffer containing 20 mM Na-HEPES and 0.1 mM EDTA (pH 7.4, buffer 2). The resulting pellet was resuspended in buffer 2 and protein concentration was measured (BCA protein Assay, Pierce). The homogenate was kept cold during the whole procedure. The membranes were kept at −80° C. until use. The assay was performed in a 384 well Optiplate (PerkinElmer) in a total volume of 40 ul. Membranes were mixed with SPA beads. Final concentration of membranes 35 ng/μL final and SPA beads was 0.05 mg/well. Test-compounds were dissolved in DMSO and further diluted in assay buffer (50 mM Hepes, pH 7.4, 1 mM CaCl2, 5 mM MgCl₂, 0.1% OA and 0.02% Tween20). […] The final mixture was incubated with shaking at 400 rpm for 120 min at 25° C. prior to centrifugation (1500 rpm, 10 min). Samples were analyzed on TopCounter™ (Packard). The IC₅₀ was calculated using (one site binding competition analysis) GraphPad Prism5 as a measure of receptor affinity.

Binder	hAmylin-R funct. EC50 [1]	Ratio hCT/hAmylin funct. (hCTR EC50 against hAmylin-R EC50) [2]	hCTR funct. EC50 [2]	IC50 [3]
B1	0.092 nM	4	0.372 nM	0.97 nM
B2	0.05 nM	6.6	0.327 nM	0.1 nM
B3	0.082 nM	1.1	0.087 nM	0.072 nM
B4	0.146 nM	1.6	0.238 nM	0.196 nM
B5	0.27 nM	3.8	1.03 nM	0.794 nM
